From patent US20230381281A1, “PHARMACEUTICAL COMPOSITION COMPRISING GLUCAGON/GLP-1/GIP TRIPLE AGONIST OR LONG-ACTING CONJUGATE THEREOF FOR PREVENTING OR TREATING LUPUS-RELATED DISEASES” (HANMI PHARM. CO., LTD., priority 2020, published 2023)
Bridge positions count the residues as written; N and C are the ends. Square brackets hold non-standard residues; d marks the D form. Ends that are not written are not given here. * marks the point of attachment. Acetyl(2-(4-imidazolyl)) = O=C(Cc1c[nH]cn1)*; Aib = CC(C)(N)C(=O)O

T1: human GIP receptor (human, UniProt P48546 22-466)
T1 sequence (looked up): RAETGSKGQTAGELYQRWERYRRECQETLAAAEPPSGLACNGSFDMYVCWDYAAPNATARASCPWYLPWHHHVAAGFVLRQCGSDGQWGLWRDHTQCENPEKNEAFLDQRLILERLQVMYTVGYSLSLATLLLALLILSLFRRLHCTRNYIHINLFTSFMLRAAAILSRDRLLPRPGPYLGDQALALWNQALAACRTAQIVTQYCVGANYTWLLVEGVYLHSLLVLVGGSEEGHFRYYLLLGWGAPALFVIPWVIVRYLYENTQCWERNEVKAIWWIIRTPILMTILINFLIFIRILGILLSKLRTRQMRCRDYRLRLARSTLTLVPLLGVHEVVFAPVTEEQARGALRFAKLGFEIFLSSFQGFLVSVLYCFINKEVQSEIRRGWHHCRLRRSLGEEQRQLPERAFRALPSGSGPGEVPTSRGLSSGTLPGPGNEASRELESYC

B1: Triple agonist of SEQ ID NO: 56 (peptide)
peptide: H[Aib]QGTFTSDYSKYLDEKRQKEFVNWLLAQC
modifications: bridge (positions not given here); also: ring formation between underlined amino acids, places not given here

The binders below were run against human GLP-1 receptor (human, UniProt P43220 24-463) (assay: cell-based or functional assay).

| Binder | In vitro activity compared to native peptide (%) vs GLP-1 [%] |
| --- | --- |
| HGQGTFTSDCSKYLDEQHAQEFVAWLLAGGPSSGAPPPS [Triple agonist of SEQ ID NO: 46] | 1.4 |
| HGQGTFTSDCSKYLDGQRAQEFVAWLLAGGPSSGAPPPS [Triple agonist of SEQ ID NO: 47] | 2.4 |
| HGQGTFTSDCSKYMDGQAAQDFVAWLLAGGPSSGAPPPS [Triple agonist of SEQ ID NO: 45] | 6.6 |
| HGQGTFTSDCSKYLDGQRAQDFVNWLLAGGPSSGAPPPS [Triple agonist of SEQ ID NO: 48] | 1.5 |
| H[Aib]QGTFTSDVSSYLDGQAAKEFVAWLLKGC [Triple agonist of SEQ ID NO: 6] | 17 |
| {Acetyl(2-(4-imidazolyl))}-[Aib]QGTFTSDKSSYLDERAAQDFVQWLLDGGPSSGAPPPSS [Triple agonist of SEQ ID NO: 38] | 2.3 |
| H[Aib]QGTFTSDYSKYLDEKRAKEFVQWLLDHHPSSGQPPPSC (bridge 16-20) [Triple agonist of SEQ ID NO: 50] | 67.4 |
| {Acetyl(2-(4-imidazolyl))}-[Aib]QGTFTSDYSICMDEKHQKDFVNWLLNTK (bridge 15-19) [Triple agonist of SEQ ID NO: 59] | 40.3 |
| H[Aib]QGTFTSDYSIAMDEIHQKDFVNWLLAQC (bridge 16-20) [Triple agonist of SEQ ID NO: 55] | 27.1 |
| H[Aib]QGTFTSDYSKYLDEKRQKEFVQWLLNTKC (bridge 16-20) [Triple agonist of SEQ ID NO: 58] | 39.1 |
| H[Aib]QGTFTSDKSKYLDECAAQDFVQWLLDGGPSSGAPPPS [Triple agonist of SEQ ID NO: 41] | 34.3 |
| H[Aib]QGTFTSDYSKYLDGQHAQCFVAWLLAGGGPSSGAPPPS [Triple agonist of SEQ ID NO: 39] | 13.9 |
| B1 | 57.9 |
| H[Aib]QGTFTSDYSKYLDEKRQKEFVQWLLDTC (bridge 16-20) [Triple agonist of SEQ ID NO: 52] | 44.1 |
| H[Aib]QGTFTSDVSSYLLGQQQKEFIAWLVKGGGPSSGAPPPSC [Triple agonist of SEQ ID NO: 5] | 42.1 |
| H[Aib]QGTFTSDYSKYLDEKRQKEFVNWLLAQKC (bridge 16-20) [Triple agonist of SEQ ID NO: 34] | 19.1 |

The binders below were run against T1, human GIP receptor (assay: cell-based or functional assay).

| Binder | In vitro activity compared to native peptide (%) vs GIP [%] |
| --- | --- |
| HGQGTFTSDCSKYLDEQHAQEFVAWLLAGGPSSGAPPPS [Triple agonist of SEQ ID NO: 46] | < 0.1 |
| HGQGTFTSDCSKYLDGQRAQEFVAWLLAGGPSSGAPPPS [Triple agonist of SEQ ID NO: 47] | < 0.1 |
| HGQGTFTSDCSKYMDGQAAQDFVAWLLAGGPSSGAPPPS [Triple agonist of SEQ ID NO: 45] | < 0.1 |
| HGQGTFTSDCSKYLDGQRAQDFVNWLLAGGPSSGAPPPS [Triple agonist of SEQ ID NO: 48] | < 0.1 |
| H[Aib]QGTFTSDVSSYLDGQAAKEFVAWLLKGC [Triple agonist of SEQ ID NO: 6] | < 0.1 |
| H[Aib]QGTFTSDYSKYLDEKRAKEFVQWLLDHHPSSGQPPPSC (bridge 16-20) [Triple agonist of SEQ ID NO: 50] | 2.7 |
| {Acetyl(2-(4-imidazolyl))}-[Aib]QGTFTSDYSICMDEKHQKDFVNWLLNTK (bridge 15-19) [Triple agonist of SEQ ID NO: 59] | 4 |
| H[Aib]QGTFTSDYSIAMDEIHQKDFVNWLLAQC (bridge 16-20) [Triple agonist of SEQ ID NO: 55] | 2.4 |
| H[Aib]QGTFTSDYSKYLDEKRQKEFVQWLLNTKC (bridge 16-20) [Triple agonist of SEQ ID NO: 58] | 0.2 |
| H[Aib]QGTFTSDKSKYLDECAAQDFVQWLLDGGPSSGAPPPS [Triple agonist of SEQ ID NO: 41] | < 0.1 |
| H[Aib]QGTFTSDYSKYLDGQHAQCFVAWLLAGGGPSSGAPPPS [Triple agonist of SEQ ID NO: 39] | < 0.1 |
| B1 | 0.8 |
| H[Aib]QGTFTSDYSKYLDEKRQKEFVQWLLDTC (bridge 16-20) [Triple agonist of SEQ ID NO: 52] | 0.3 |
| H[Aib]QGTFTSDVSSYLLGQQQKEFIAWLVKGGGPSSGAPPPSC [Triple agonist of SEQ ID NO: 5] | < 0.1 |
| H[Aib]QGTFTSDYSKYLDEKRQKEFVNWLLAQKC (bridge 16-20) [Triple agonist of SEQ ID NO: 34] | 0.6 |

Each binder was assayed against human GCG receptor (human, UniProt P47871 26-477) (assay: cell-based or functional assay).
Chain of human GCG receptor (P47871 26-477): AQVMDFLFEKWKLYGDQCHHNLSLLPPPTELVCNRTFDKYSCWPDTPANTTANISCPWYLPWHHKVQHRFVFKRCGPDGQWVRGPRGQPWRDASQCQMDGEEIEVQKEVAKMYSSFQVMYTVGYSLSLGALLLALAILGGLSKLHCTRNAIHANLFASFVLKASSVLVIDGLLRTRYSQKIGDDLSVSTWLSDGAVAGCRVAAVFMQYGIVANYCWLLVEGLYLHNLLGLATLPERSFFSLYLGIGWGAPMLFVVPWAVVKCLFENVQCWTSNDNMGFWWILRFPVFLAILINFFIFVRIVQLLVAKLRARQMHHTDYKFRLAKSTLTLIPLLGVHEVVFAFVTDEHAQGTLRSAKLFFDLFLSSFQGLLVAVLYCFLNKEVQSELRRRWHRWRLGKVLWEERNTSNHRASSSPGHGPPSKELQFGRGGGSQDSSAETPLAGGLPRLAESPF

| Binder | In vitro activity compared to native peptide (%) vs Glucagon [%] |
| --- | --- |
| HGQGTFTSDCSKYLDEQHAQEFVAWLLAGGPSSGAPPPS [Triple agonist of SEQ ID NO: 46] | < 0.1 |
| HGQGTFTSDCSKYLDGQRAQEFVAWLLAGGPSSGAPPPS [Triple agonist of SEQ ID NO: 47] | < 0.1 |
| HGQGTFTSDCSKYMDGQAAQDFVAWLLAGGPSSGAPPPS [Triple agonist of SEQ ID NO: 45] | < 0.1 |
| HGQGTFTSDCSKYLDGQRAQDFVNWLLAGGPSSGAPPPS [Triple agonist of SEQ ID NO: 48] | < 0.1 |
| H[Aib]QGTFTSDVSSYLDGQAAKEFVAWLLKGC [Triple agonist of SEQ ID NO: 6] | < 0.1 |
| H[Aib]QGTFTSDYSKYLDEKRAKEFVQWLLDHHPSSGQPPPSC (bridge 16-20) [Triple agonist of SEQ ID NO: 50] | 50.5 |
| {Acetyl(2-(4-imidazolyl))}-[Aib]QGTFTSDYSICMDEKHQKDFVNWLLNTK (bridge 15-19) [Triple agonist of SEQ ID NO: 59] | < 0.1 |
| H[Aib]QGTFTSDYSIAMDEIHQKDFVNWLLAQC (bridge 16-20) [Triple agonist of SEQ ID NO: 55] | 0.7 |
| H[Aib]QGTFTSDYSKYLDEKRQKEFVQWLLNTKC (bridge 16-20) [Triple agonist of SEQ ID NO: 58] | 2.6 |
| H[Aib]QGTFTSDKSKYLDECAAQDFVQWLLDGGPSSGAPPPS [Triple agonist of SEQ ID NO: 41] | < 0.1 |
| H[Aib]QGTFTSDYSKYLDGQHAQCFVAWLLAGGGPSSGAPPPS [Triple agonist of SEQ ID NO: 39] | 0.53 |
| B1 | 4.9 |
| H[Aib]QGTFTSDYSKYLDEKRQKEFVQWLLDTC (bridge 16-20) [Triple agonist of SEQ ID NO: 52] | 7.5 |
| H[Aib]QGTFTSDVSSYLLGQQQKEFIAWLVKGGGPSSGAPPPSC [Triple agonist of SEQ ID NO: 5] | < 0.1 |
| H[Aib]QGTFTSDYSKYLDEKRQKEFVNWLLAQKC (bridge 16-20) [Triple agonist of SEQ ID NO: 34] | 0.92 |
